Measurements published in patent publication US20230151068A1.
Numbering of substitutions follows the chain as printed. Names may count otherwise.

B1: E03T variant of SEQ ID NO: 1 (designed binder)
chain: GSPDTYIERAKECCKKGDIQCCLRYFEESGDPNVMLICLFCP
B2: K09A variant of SEQ ID NO: 1 (designed binder)
chain: B1 chain with T5E, K11A
B3: E10I variant of SEQ ID NO: 1 (designed binder)
chain: B1 chain with T5E, E12I
B4: E03A variant of SEQ ID NO: 1 (designed binder)
chain: B1 chain with T5A
B5: K09I variant of SEQ ID NO: 1 (designed binder)
chain: B1 chain with T5E, K11I
B6: R07T variant of SEQ ID NO: 1 (designed binder)
chain: B1 chain with T5E, R9T
B7: R07V variant of SEQ ID NO: 1 (designed binder)
chain: B1 chain with T5E, R9V
B8: Y04L variant of SEQ ID NO: 1 (designed binder)
chain: B1 chain with T5E, Y6L
B9: D02A variant of SEQ ID NO: 1 (designed binder)
chain: B1 chain with D4A, T5E
B10: R07L variant of SEQ ID NO: 1 (designed binder)
chain: B1 chain with T5E, R9L
B11: E03I variant of SEQ ID NO: 1 (designed binder)
chain: B1 chain with T5I
B12: E10T variant of SEQ ID NO: 1 (designed binder)
chain: B1 chain with T5E, E12T
B13: E10A variant of SEQ ID NO: 1 (designed binder)
chain: B1 chain with T5E, E12A
B14: P01V variant of SEQ ID NO: 1 (designed binder)
chain: B1 chain with P3V, T5E
B15: Y04A variant of SEQ ID NO: 1 (designed binder)
chain: B1 chain with T5E, Y6A
B16: Y04V variant of SEQ ID NO: 1 (designed binder)
chain: B1 chain with T5E, Y6V
B17: Y04T variant of SEQ ID NO: 1 (designed binder)
chain: B1 chain with T5E, Y6T
B18: P01I variant of SEQ ID NO: 1 (designed binder)
chain: B1 chain with P3I, T5E
B19: K09L variant of SEQ ID NO: 1 (designed binder)
chain: B1 chain with T5E, K11L
B20: E06T variant of SEQ ID NO: 1 (designed binder)
chain: B1 chain with T5E, E8T
B21: P01A variant of SEQ ID NO: 1 (designed binder)
chain: B1 chain with P3A, T5E
B22: E03V variant of SEQ ID NO: 1 (designed binder)
chain: B1 chain with T5V
B23: I05A variant of SEQ ID NO: 1 (designed binder)
chain: B1 chain with T5E, I7A
B24: K09T variant of SEQ ID NO: 1 (designed binder)
chain: B1 chain with T5E, K11T
B25: I05T variant of SEQ ID NO: 1 (designed binder)
chain: B1 chain with T5E, I7T
B26: A08L variant of SEQ ID NO: 1 (designed binder)
chain: B1 chain with T5E, A10L
B27: P01L variant of SEQ ID NO: 1 (designed binder)
chain: B1 chain with P3L, T5E
B28: A08V variant of SEQ ID NO: 1 (designed binder)
chain: B1 chain with T5E, A10V
B29: A08I variant of SEQ ID NO: 1 (designed binder)
chain: B1 chain with T5E, A10I
B30: E10L variant of SEQ ID NO: 1 (designed binder)
chain: B1 chain with T5E, E12L
B31: R07A variant of SEQ ID NO: 1 (designed binder)
chain: B1 chain with T5E, R9A
B32: A08T variant of SEQ ID NO: 1 (designed binder)
chain: B1 chain with T5E, A10T
B33: I05V variant of SEQ ID NO: 1 (designed binder)
chain: B1 chain with T5E, I7V
B34: Y04I variant of SEQ ID NO: 1 (designed binder)
chain: B1 chain with T5E, Y6I
B35: D02L variant of SEQ ID NO: 1 (designed binder)
chain: B1 chain with D4L, T5E
B36: D02I variant of SEQ ID NO: 1 (designed binder)
chain: B1 chain with D4I, T5E
B37: E06L variant of SEQ ID NO: 1 (designed binder)
chain: B1 chain with T5E, E8L
B38: E03L variant of SEQ ID NO: 1 (designed binder)
chain: B1 chain with T5L
B39: R07I variant of SEQ ID NO: 1 (designed binder)
chain: B1 chain with T5E, R9I
B40: I05L variant of SEQ ID NO: 1 (designed binder)
chain: B1 chain with T5E, I7L
B41: E06I variant of SEQ ID NO: 1 (designed binder)
chain: B1 chain with T5E, E8I
B42: D02V variant of SEQ ID NO: 1 (designed binder)
chain: B1 chain with D4V, T5E
B43: E06V variant of SEQ ID NO: 1 (designed binder)
chain: B1 chain with T5E, E8V
B44: E06A variant of SEQ ID NO: 1 (designed binder)
chain: B1 chain with T5E, E8A

Target: biotinylated His-Avi-TEAD (194-411) (UniProt P28347)
Assay: SSM screen, enrichment after two rounds of sorting

Row | Binder | enrichment score
1 | B1 | 1.19
2 | B2 | -1.27
3 | B3 | -0.65
4 | B4 | -2.02
5 | B5 | -3.03
6 | B6 | -4.07
7 | B7 | -2.31
8 | B8 | -1.81
9 | B9 | -1.43
10 | B10 | -0.39
11 | B11 | -0.26
12 | B12 | -1.57
13 | B13 | -0.24
14 | B14 | -0.59
15 | B15 | 0.26
16 | B16 | -0.75
17 | B17 | -0.87
18 | B18 | -2.27
19 | B19 | -11.2
20 | B20 | -0.92
21 | B21 | 0.36
22 | B22 | -1.39

Row | Binder | enrichment score
23 | B23 | -1.2
24 | B24 | 2.68
25 | B25 | -1.77
26 | B26 | -9.93
27 | B27 | -2.9
28 | B28 | -4.43
29 | B29 | -8.31
30 | B30 | -1.83
31 | B31 | 0.28
32 | B32 | -3.84
33 | B33 | -0.27
34 | B34 | -0.41
35 | B35 | -3.53
36 | B36 | -0.7
37 | B37 | -0.4
38 | B38 | 0.32
39 | B39 | -3.98
40 | B40 | -0.38
41 | B41 | -1.56
42 | B42 | -2.34
43 | B43 | -1.55
44 | B44 | -0.68
